From article PMC12992115 (Nature Cell Biology, 2026)
Where “and” joins values, the source holds several entries; their conditions need not be identical. Equal entries are not always repeated.

Experiments:
[1] = target: Biotinylated BicD2 (amino acids 25–400) (mouse) (UniProt Q921C5); assay: three-colour single-molecule TIRF co-localization
[2] = target: BicD2–rigor kinesin conjugate (BicD2(25–400)–SpyCatcher003 covalently linked to KIF5B(1–490) rigor mutant–SpyTag003) (mouse | not stated) (UniProt Q921C5); assay: three-colour single-molecule TIRF co-localization
BicD2–rigor kinesin conjugate (BicD2(25–400)–SpyCatcher003 covalently linked to KIF5B(1–490) rigor mutant–SpyTag003) (mouse | not stated), sequence (Q921C5 25-400, change not shown): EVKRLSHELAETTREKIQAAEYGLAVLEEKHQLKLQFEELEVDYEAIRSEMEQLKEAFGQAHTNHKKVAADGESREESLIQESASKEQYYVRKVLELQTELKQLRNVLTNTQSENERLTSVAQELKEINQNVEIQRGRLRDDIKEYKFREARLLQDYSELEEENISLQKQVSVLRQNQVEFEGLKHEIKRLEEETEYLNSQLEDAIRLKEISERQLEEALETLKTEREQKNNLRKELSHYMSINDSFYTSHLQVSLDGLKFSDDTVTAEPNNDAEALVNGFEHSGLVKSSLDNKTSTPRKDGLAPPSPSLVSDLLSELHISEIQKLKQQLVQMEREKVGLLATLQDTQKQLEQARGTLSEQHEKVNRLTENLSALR

[3] = target: BicD2(25–400) with SpyCatcher003 at the C terminus (mouse) (UniProt Q921C5); assay: mass photometry
[4] = target: truncated kinesin-1 rigor mutant (KIF5B(1–490)) with SpyTag003 at the C terminus (UniProt P33176); assay: mass photometry
[5] = target: BicD2–superfolder green fluorescent protein (sfGFP), amino acids 25–400 (UniProt Q921C5); assay: pull-down + other: mass photometry
BicD2–superfolder green fluorescent protein (sfGFP), amino acids 25–400, sequence (Q921C5 25-400): as the sequence (Q921C5 25-400, change not shown) above

mass photometry = target: the molecule itself; assay: mass photometry

Biotinylated BicD2 (amino acids 25–400) (mouse), sequence (Q921C5 25-400): as the sequence (Q921C5 25-400, change not shown) above

**Q.** Which results are given for “recombinant full-length human cytoplasmic dynein-1 complex co-expressed with its five accessory chains (from UniProt Q14204;Q13409;O43237;P63172;P63167;Q9NP97)”?
**A.** frequency of three-colour dynein co-localization [1]: 0.018; frequency of three-colour dynein co-localization [2]: 0.028

**Q.** Which stoichiometry N [3] does the source give for “BicD2(25–400) with SpyCatcher003 at the C terminus (from UniProt Q921C5 25-400) (domain or fragment)” here?
**A.** 2

**Q.** And the stoichiometry N (BicD2:rigor kinesin (2:2)) [4]?
**A.** 1

**Q.** For “cytoplasmic dynein from rat-brain lysate (complex)”, which stoichiometry N (dynein per DDB complex) [5] is on record?
**A.** 1 and 2

B1: truncated kinesin-1 rigor mutant (KIF5B(1–490)) with SpyTag003 at the C terminus (domain or fragment)
chain: MADLAESNIKVMCRFRPLNESEVNRGDKYIAKFQGEDTVVIACKPYAFDRVFQSSTSQEQVYNDAAKKIVKDVLEGYNGTIFAYGQTSSGKNHTMEGKLHDPEGMGIIPRIVQDIFNYIYSMDENLEFHIKVSYFEIYLDKIRDLLDVSKTNLSVHEDKNRVPYVKGATERFVSSPDEVMDTIDEGKSNRHVAVTNMNEHSSRSHSIFLINVKQENTQTEQKLSGKLYLVDLAGSEKVSKTGAEGAVLDEAKNINKSLSALGNVISALAEGSTYVPYRDSKMTRILQDSLGGNARTTIVICCSPSSYNESETKSTLLFGQRAKTIKNTVSVNVELTAEQWKKKYEKEKEKNKILRNTIQWLENELNRWRNGETVPIDEQFDKEKANLEAFTVDKDITLTNDKPATAIGVIGNFTDAERRKAEEEIAKLYKQLDDKDEEINQQSQLVEKLKTQMLDQEELLASTRRDQDNMQAELNRLQAENDASKEEVKE
modifications: cyanine 5 label (Fig. 5d) or CF488 label (Fig. 5h)
**Q.** With B1 as the molecule, how does the “stoichiometry N” value (mass photometry) read?
**A.** 2
